B1: BoNT/AHc单克隆抗体细胞株401 (monoclonal antibody of hybridoma cell line 401) (antibody)
VH: LTMDFGLSLVFLVLTLKGVKCEVQLVESGGGLVKPGGSLKLSCAASGFAFSTSDMSWVRQTPEKRLEWVTYITSGAGNTNYPDTVKGRFTISRDNAKNTLYVQMSSLKSEDTAMYYCARQSRWSLALDYWGQGTLVTVSAAKTTPPSVYPLAPVCGG
VL: LTMETDTLLLWVLLLWVPGSTGDIVLTQSPASLAVSLGQRATISYRGSNSVSISAYSYMHWNQQKPGQPPRLLIYLVWNQESGVPARFSGSGSGTDFTLNIHPVEEEDAATYYCQHITELTRSEGGPSWKSNGLMLHQLYPSPTIQ
B2: BoNT/AHc单克隆抗体细胞株1103 (monoclonal antibody of hybridoma cell line 1103) (antibody)
VH: LTMNFGLSWVFLLTLLHGFQCEVKLVKSGGGSVQPGGSLRLSCTTSGFTFSDSYMQWVRQPLGKRLEWITAGRHKANEYTTEWSASTRGRFIVSRDTSQSILNLQMNALRTEDPAISYCARDDCPHFILPRSYYFFDIWGAGTTVTVSSAKTTPPSVYPLAPVCGG
VL: DIVLTQSPASLAVSLGQRATISYRPSKSVSTSRYSYMHWNQQKPGQPPRLLIYLESNLASGVPARFSGSGSGTDFTLNIHPVEEEDAATYYCQLITELTRSEGGPSWKYNGLMLHQLYP

Biological target: A型肉毒毒素 (botulinum toxin type A, sample solution of Example 4) (Clostridium botulinum) (UniProt P0DPI0)
Chain of UniProt P0DPI0 (P0DPI0 868-1296 limits assumed): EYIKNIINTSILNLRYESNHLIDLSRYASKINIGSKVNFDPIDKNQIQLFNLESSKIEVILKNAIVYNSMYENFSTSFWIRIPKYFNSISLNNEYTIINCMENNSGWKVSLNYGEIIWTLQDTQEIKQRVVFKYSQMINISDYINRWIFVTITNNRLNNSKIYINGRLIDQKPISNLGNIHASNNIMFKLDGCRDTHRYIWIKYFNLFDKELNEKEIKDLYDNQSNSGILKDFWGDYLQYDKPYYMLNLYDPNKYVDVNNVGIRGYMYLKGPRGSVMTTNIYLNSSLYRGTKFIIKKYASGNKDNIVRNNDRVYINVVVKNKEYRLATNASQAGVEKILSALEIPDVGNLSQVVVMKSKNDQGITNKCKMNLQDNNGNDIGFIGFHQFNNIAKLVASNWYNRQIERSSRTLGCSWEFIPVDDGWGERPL

| Binder | 检测限 (detection limit of the sandwich test) |
| --- | --- |
| B1 | 20 ng/mL |
| B2 | 20 ng/mL |

Reference: CN114671948A
